In PMC7926355, “Mutation of GGMP Repeat Segments of Plasmodium falciparum Hsp70-1 Compromises Chaperone Function and Hop Co-Chaperone Binding” (International Journal of Molecular Sciences, 2021):

Tests used:
Assay in all cases: SPR
Details in all cases: both partners purified
PfHsp70-1∆G = PfHsp70-1∆G (Plasmodium falciparum 3D7, UniProt Q8IB24 1-677, deletion of residues 632-664)
[1] = target: T1, Plasmodium falciparum Hsp70-1 (PfHsp70-1), wild type (Plasmodium falciparum 3D7, UniProt Q8IB24 1-677)
T1 construct: PfHsp70-1, cytosolic Hsp70 of Plasmodium falciparum 3D7, NCBI XP_001349336.1; called the full length PfHsp70-1 protein; pQE30 vector with N-terminal (His)6-tag; also called WT; wild type PfHsp70-1

PfHsp70-1_(G632-664) = PfHsp70-1_(G632-664) (Plasmodium falciparum 3D7, UniProt Q8IB24 1-677, 632[…]664 to 632[…]664)
PfHsp70-1_(G648) = PfHsp70-1_(G648) (Plasmodium falciparum 3D7, UniProt Q8IB24 1-677, 648[…]657 to 648[…]657)
PfHsp70-1_(G632) = PfHsp70-1_(G632) (Plasmodium falciparum 3D7, UniProt Q8IB24 1-677, 632GGMPGGMP639 to 632AALAAALA639)

Measured: binding result

B1: Plasmodium falciparum Hsp70-Hsp90 organising protein (PfHop) (natural protein, UniProt Q8ILC1 1-564, looked up)
chain: MVNKEEAQRLKELGNKCFQEGKYEEAVKYFSDAITNDPLDHVLYSNLSGAFASLGRFYEALESANKCISIKKDWPKGYIRKGCAEHGLRQLSNAEKTYLEGLKIDPNNKSLQDALSKVRNENMLENAQLIAHLNNIIENDPQLKSYKEENSNYPHELLNTIKSINSNPMNIRIILSTCHPKISEGVEKFFGFKFTGEGNDAEERQRQQREEEERRKKKEEEERKKKEEEEMKKQNRTPEQIQGDEHKLKGNEFYKQKKFDEALKEYEEAIQINPNDIMYHYNKAAVHIEMKNYDKAVETCLYAIENRYNFKAEFIQVAKLYNRLAISYINMKKYDLAIEAYRKSLVEDNNRATRNALKELERRKEKEEKEAYIDPDKAEEHKNKGNEYFKNNDFPNAKKEYDEAIRRNPNDAKLYSNRAAALTKLIEYPSALEDVMKAIELDPTFVKAYSRKGNLHFFMKDYYKALQAYNKGLELDPNNKECLEGYQRCAFKIDEMSKSEKVDEEQFKKSMADPEIQQIISDPQFQIILQKLNENPNSISEYIKDPKIFNGLQKLIAAGILKVR
notes: PfHop, Hsp70-Hsp90 organising protein of Plasmodium falciparum
binds: all assays above
